These results are taken from patent US20160031998A1 (CSL, published 2016).

One may read the Kd as the equilibrium constant for the complex coming apart. Low readings indicate a tighter complex, high ones a looser complex.

Assay [1] deals with T1, human G-CSFR expressed on cells (Homo sapiens, UniProt Q99062 25-836).
T1 sequence: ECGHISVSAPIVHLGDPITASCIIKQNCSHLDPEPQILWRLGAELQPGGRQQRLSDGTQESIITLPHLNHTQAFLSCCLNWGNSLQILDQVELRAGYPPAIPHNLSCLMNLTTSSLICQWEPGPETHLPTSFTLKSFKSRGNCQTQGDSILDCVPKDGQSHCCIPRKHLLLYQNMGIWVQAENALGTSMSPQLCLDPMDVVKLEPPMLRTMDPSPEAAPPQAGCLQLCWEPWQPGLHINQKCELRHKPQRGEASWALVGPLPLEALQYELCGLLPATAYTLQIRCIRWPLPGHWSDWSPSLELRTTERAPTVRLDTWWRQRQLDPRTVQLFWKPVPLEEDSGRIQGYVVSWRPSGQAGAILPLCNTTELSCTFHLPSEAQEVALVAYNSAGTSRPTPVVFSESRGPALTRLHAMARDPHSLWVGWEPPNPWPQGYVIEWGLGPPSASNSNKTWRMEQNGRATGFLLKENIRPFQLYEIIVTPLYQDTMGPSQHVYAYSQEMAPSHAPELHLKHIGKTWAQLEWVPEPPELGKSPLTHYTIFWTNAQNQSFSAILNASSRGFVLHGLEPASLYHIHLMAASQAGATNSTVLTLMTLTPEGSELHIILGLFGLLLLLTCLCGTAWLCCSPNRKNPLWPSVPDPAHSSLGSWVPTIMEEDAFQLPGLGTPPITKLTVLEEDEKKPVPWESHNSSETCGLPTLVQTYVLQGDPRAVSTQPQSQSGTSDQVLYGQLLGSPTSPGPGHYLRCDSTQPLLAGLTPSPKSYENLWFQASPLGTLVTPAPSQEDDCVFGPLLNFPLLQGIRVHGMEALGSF
Kind of assay: cell-based or functional assay.

For assay [2], the target named is T2, soluble hG-CSFR: amino acids 25-335 of Homo sapiens G-CSFR with mutations C78A, C163S and C228S and a … (Homo sapiens, UniProt Q99062 25-335).
T2 chain: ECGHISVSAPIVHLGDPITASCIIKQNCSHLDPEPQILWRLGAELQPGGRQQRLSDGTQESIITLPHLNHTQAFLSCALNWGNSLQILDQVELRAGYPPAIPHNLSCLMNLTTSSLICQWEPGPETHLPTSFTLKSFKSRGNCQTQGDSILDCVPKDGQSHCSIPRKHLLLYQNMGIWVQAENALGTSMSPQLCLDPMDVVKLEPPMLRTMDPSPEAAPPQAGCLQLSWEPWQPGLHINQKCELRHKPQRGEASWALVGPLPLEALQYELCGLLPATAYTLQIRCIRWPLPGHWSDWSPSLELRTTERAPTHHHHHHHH
Kind of assay: SPR (Biacore), mAb captured by anti-human IgG, soluble hG-CSFR injected. As to the method:
Soluble hG-CSFR was injected for 5 minutes and dissociation was monitored for 30 minutes. Responses from a reference flow cell (in which mAb was not captured, but otherwise treated identically), were subtracted. The responses from a blank injection were then subtracted from the resultant sensorgrams.
The final corrected responses were fitted using non-linear regression to a model describing 1:1 kinetics, including a term for mass transport limitation. The Rmax value was fitted locally, to account for slight deviations in the level of mAb captured. Association rate (ka), dissociation rate (kd) and equilibrium dissociation constant (KD) were determined.
A general note: SPR reads the build-up and loss of mass on a sensor chip optically.

B1: C1.2G-44 (antibody, human IgG4, V domains shown)
VH: EVQLLESGGGLVQPGGSLRLSCAASGFTFSLYWMGWVRQAPGKGLEWVSSISSSGGVTPYADSVKGRFTISRDNSKNTLYLQMNSLRAEDTAVYYCAKLGELGWFDPWGQGTLVTVSS
VL: DIQMTQSPSSLSASVGDRVTITCRASQGISSYLNWYQQKPGKAPKLLIYYASNLQNGVPSRFSGSGSGTDFTLTISSLQPEDFATYYCQQSYSYPQKFGGGTKVEIK
notes: HCDR3 wt (VH of C1.2G); also called antibody 44
For the molecule B1, the “IC50 (nM), inhibition of G-CSF-mediated proliferation of BaF3 cells” value (from here on “IC50 (nM), inhibition”) in assay [1] amounted to 0.39 nM. This molecule registered a Kd in assay [2] of 0.0733 nM.

B2: C1.2G-977 (antibody, human IgG4, V domains shown)
VH: EVQLLESGGGLVQPGGSLRLSCAASGFTFSLYWMGWVRQAPGKGLEWVSSISSSGGVTPYADSVKGRFTISRDNSKNTLYLQMNSLRAEDTAVYYCAKLGELGEIREWGQGTLVTVSS
VL: DIQMTQSPSSLSASVGDRVTITCRASQGISSYLNWYQQKPGKAPKLLIYYASNLQNGVPSRFSGSGSGTDFTLTISSLQPEDFATYYCQQSWVYHLPFGGGTKVEIK
notes: also called antibody 977
In turn, B2 returned a Kd in assay [2] of 0.246 nM.

B3: C1.2G-999 (antibody, human IgG4, V domains shown)
VH: EVQLLESGGGLVQPGGSLRLSCAASGFTFSLYWMGWVRQAPGKGLEWVSSISSSGGVTPYADSVKGRFTISRDNSKNTLYLQMNSLRAEDTAVYYCAKLGELGMFHKWGQGTLVTVSS
VL: DIQMTQSPSSLSASVGDRVTITCRASQGISSYLNWYQQKPGKAPKLLIYYASNLQNGVPSRFSGSGSGTDFTLTISSLQPEDFATYYCQQSWEYAMFFGGGTKVEIK
notes: also called antibody 999
The molecule B3 gave a Kd in assay [2] of 0.356 nM. The Kd values of the last two molecules are within 1.5-fold of each other.

B4: C1.2G-973 (antibody, human IgG4, V domains shown)
VH: EVQLLESGGGLVQPGGSLRLSCAASGFTFSLYWMGWVRQAPGKGLEWVSSISSSGGVTPYADSVKGRFTISRDNSKNTLYLQMNSLRAEDTAVYYCAKLGELGQMVYWGQGTLVTVSS
VL: DIQMTQSPSSLSASVGDRVTITCRASQGISSYLNWYQQKPGKAPKLLIYYASNLQNGVPSRFSGSGSGTDFTLTISSLQPEDFATYYCQQSFKYPMTFGGGTKVEIK
notes: also called antibody 973
In assay [2], B4 showed a Kd of 0.23 nM. Compared with the last molecule, the Kd is about 1.5-fold lower.

B5: C1.2G-996 (antibody, human IgG4, V domains shown)
VH: EVQLLESGGGLVQPGGSLRLSCAASGFTFSLYWMGWVRQAPGKGLEWVSSISSSGGVTPYADSVKGRFTISRDNSKNTLYLQMNSLRAEDTAVYYCAKLGELGQYMGWGQGTLVTVSS
VL: DIQMTQSPSSLSASVGDRVTITCRASQGISSYLNWYQQKPGKAPKLLIYYASNLQNGVPSRFSGSGSGTDFTLTISSLQPEDFATYYCQQSMWMPIFFGGGTKVEIK
notes: also called antibody 996
In assay [2], B5 returned a Kd of 0.336 nM. This Kd and that of the molecule before are within 1.5-fold of each other.

B6: C1.2G-975 (antibody, human IgG4, V domains shown)
VH: EVQLLESGGGLVQPGGSLRLSCAASGFTFSLYWMGWVRQAPGKGLEWVSSISSSGGVTPYADSVKGRFTISRDNSKNTLYLQMNSLRAEDTAVYYCAKLGELGQSMLWGQGTLVTVSS
VL: DIQMTQSPSSLSASVGDRVTITCRASQGISSYLNWYQQKPGKAPKLLIYYASNLQNGVPSRFSGSGSGTDFTLTISSLQPEDFATYYCQQSWQIKLKFGGGTKVEIK
notes: also called antibody 975
Turning to B6, in assay [2], binding was characterised by a dissociation constant (Kd) of 0.209 nM.

B7: C1.2G-984 (antibody, human IgG4, V domains shown)
VH: EVQLLESGGGLVQPGGSLRLSCAASGFTFSLYWMGWVRQAPGKGLEWVSSISSSGGVTPYADSVKGRFTISRDNSKNTLYLQMNSLRAEDTAVYYCAKLGELGMMQSWGQGTLVTVSS
VL: DIQMTQSPSSLSASVGDRVTITCRASQGISSYLNWYQQKPGKAPKLLIYYASNLQNGVPSRFSGSGSGTDFTLTISSLQPEDFATYYCQQSIEYPAHFGGGTKVEIK
notes: also called antibody 984
Molecule B7 showed a Kd in assay [2] of 0.25 nM. The Kd values of the last two molecules are within 1.5-fold of each other.

B8: C1.2G-43 (antibody, human IgG4, V domains shown)
VH: EVQLLESGGGLVQPGGSLRLSCAASGFTFSLYWMGWVRQAPGKGLEWVSSISSSGGVTPYADSVKGRFTISRDNSKNTLYLQMNSLRAEDTAVYYCAKLGELGQFMRWGQGTLVTVSS
VL: DIQMTQSPSSLSASVGDRVTITCRASQGISSYLNWYQQKPGKAPKLLIYYASNLQNGVPSRFSGSGSGTDFTLTISSLQPEDFATYYCQQSIGYPGSFGGGTKVEIK
notes: also called antibody 43
Molecule B8 showed a dissociation constant Kd in assay [2] of 0.336 nM.

B9: C1.2G-870 (antibody, human IgG4, V domains shown)
VH: EVQLLESGGGLVQPGGSLRLSCAASGFTFSLYWMGWVRQAPGKGLEWVSSISSSGGVTPYADSVKGRFTISRDNSKNTLYLQMNSLRAEDTAVYYCAKLGELGWFDPWGQGTLVTVSS
VL: DIQMTQSPSSLSASVGDRVTITCRASQGISSYLNWYQQKPGKAPKLLIYYASNLQNGVPSRFSGSGSGTDFTLTISSLQPEDFATYYCQQSWMYHKIFGGGTKVEIK
notes: HCDR3 wt (VH of C1.2G); also called antibody 870
Molecule B9 yielded a Kd in assay [2] of 0.367 nM.

B10: C1.2G-877 (antibody, human IgG4, V domains shown)
VH: EVQLLESGGGLVQPGGSLRLSCAASGFTFSLYWMGWVRQAPGKGLEWVSSISSSGGVTPYADSVKGRFTISRDNSKNTLYLQMNSLRAEDTAVYYCAKLGELGWFDPWGQGTLVTVSS
VL: DIQMTQSPSSLSASVGDRVTITCRASQGISSYLNWYQQKPGKAPKLLIYYASNLQNGVPSRFSGSGSGTDFTLTISSLQPEDFATYYCQQSFRYPFYFGGGTKVEIK
notes: HCDR3 wt (VH of C1.2G); also called antibody 877
Take B10: the Kd in assay [2] worked out at 0.508 nM. This Kd and that of the molecule before are within 1.5-fold of each other.

B11: C1.2G-75 (antibody, human IgG4, V domains shown)
VH: EVQLLESGGGLVQPGGSLRLSCAASGFTFSLYWMGWVRQAPGKGLEWVSSISSSGGVTPYADSVKGRFTISRDNSKNTLYLQMNSLRAEDTAVYYCAKLGELGWFDPWGQGTLVTVSS
VL: DIQMTQSPSSLSASVGDRVTITCRASQGISSYLNWYQQKPGKAPKLLIYYASNLQNGVPSRFSGSGSGTDFTLTISSLQPEDFATYYCEESMNYPLTFGGGTKVEIK
notes: HCDR3 wt (VH of C1.2G); also called antibody 75
For the molecule B11, the affinity in assay [2], expressed as Kd, was 0.211 nM.

B12: C1.2G-63 (antibody, human IgG4, V domains shown)
VH: EVQLLESGGGLVQPGGSLRLSCAASGFTFSLYWMGWVRQAPGKGLEWVSSISSSGGVTPYADSVKGRFTISRDNSKNTLYLQMNSLRAEDTAVYYCAKLGELGWFDPWGQGTLVTVSS
VL: DIQMTQSPSSLSASVGDRVTITCRASQGISSYLNWYQQKPGKAPKLLIYYASNLQNGVPSRFSGSGSGTDFTLTISSLQPEDFATYYCANSWGYPLTFGGGTKVEIK
notes: HCDR3 wt (VH of C1.2G); also called antibody 63
In the case of B12, the “IC50 (nM), inhibition” value in assay [1] came out at 0.26 nM. In addition, the affinity in assay [2], expressed as Kd, was 0.161 nM.

B13: C1.2G-852 (antibody, human IgG4, V domains shown)
VH: EVQLLESGGGLVQPGGSLRLSCAASGFTFSLYWMGWVRQAPGKGLEWVSSISSSGGVTPYADSVKGRFTISRDNSKNTLYLQMNSLRAEDTAVYYCAKLGELGHSLAWGQGTLVTVSS
VL: DIQMTQSPSSLSASVGDRVTITCRASQGISSYLNWYQQKPGKAPKLLIYYASNLQNGVPSRFSGSGSGTDFTLTISSLQPEDFATYYCQQSYSTPLTFGGGTKVEIK
notes: LCDR3 wt (VL of C1.2G); also called antibody 852
B13 yielded a Kd in assay [2] of 0.292 nM.

B14: C1.2G-94 (antibody, human IgG4, V domains shown)
VH: EVQLLESGGGLVQPGGSLRLSCAASGFTFSLYWMGWVRQAPGKGLEWVSSISSSGGVTPYADSVKGRFTISRDNSKNTLYLQMNSLRAEDTAVYYCAKLGELGWFDPWGQGTLVTVSS
VL: DIQMTQSPSSLSASVGDRVTITCRASQGISSYLNWYQQKPGKAPKLLIYYASNLQNGVPSRFSGSGSGTDFTLTISSLQPEDFATYYCQQSWVYPAWFGGGTKVEIK
notes: HCDR3 wt (VH of C1.2G); also called antibody 94
Turning to B14, in assay [2], the Kd came to 0.189 nM.

B15: C1.2G-814 (antibody, human IgG4, V domains shown)
VH: EVQLLESGGGLVQPGGSLRLSCAASGFTFSLYWMGWVRQAPGKGLEWVSSISSSGGVTPYADSVKGRFTISRDNSKNTLYLQMNSLRAEDTAVYYCAKLGELGWFDPWGQGTLVTVSS
VL: DIQMTQSPSSLSASVGDRVTITCRASQGISSYLNWYQQKPGKAPKLLIYYASNLQNGVPSRFSGSGSGTDFTLTISSLQPEDFATYYCSQSMEYPLTFGGGTKVEIK
notes: HCDR3 wt (VH of C1.2G); also called antibody 814
Consider B15, for which, in assay [2], the Kd is 0.221 nM.

B16: C1.2G-56 (antibody, human IgG4, V domains shown)
VH: EVQLLESGGGLVQPGGSLRLSCAASGFTFSLYWMGWVRQAPGKGLEWVSSISSSGGVTPYADSVKGRFTISRDNSKNTLYLQMNSLRAEDTAVYYCAKLGELGWFDPWGQGTLVTVSS
VL: DIQMTQSPSSLSASVGDRVTITCRASQGISSYLNWYQQKPGKAPKLLIYYASNLQNGVPSRFSGSGSGTDFTLTISSLQPEDFATYYCQQSYMYPIKFGGGTKVEIK
notes: HCDR3 wt (VH of C1.2G); also called antibody 56
On to B16, for which, in assay [1], the “IC50 (nM), inhibition” value turned out to be 0.22 nM. Besides, the Kd in assay [2] came out at 0.0993 nM.
